The values that follow are results of earlier work, collected in paper PMC2682639.

pKd: −log10 of the molar value. A value given as a limit tells only on which side of the number the result lay.

The target of the data set is Hint1 (Homo sapiens) (UniProt P49773).

Hint1, sequence (P49773 2-126): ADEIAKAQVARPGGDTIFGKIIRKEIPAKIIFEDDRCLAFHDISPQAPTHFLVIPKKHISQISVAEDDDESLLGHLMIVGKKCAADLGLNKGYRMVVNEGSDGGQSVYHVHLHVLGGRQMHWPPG

In the case of Hint1 (from UniProt P49773), the pKd (as a rule, −log10 of the Kd, conventionally taken in molar units) is > 9.00.
